Earlier results as cited in publication PMC3382066.
“And” between values parts separate entries of the source, which are not always exact repeats. Equal entries are not always repeated.

Legend:
[1] = biological target: smooth muscle myosin (unphosphorylated) (Gallus gallus) (UniProt P10587)
[2] = biological target: calmodulin (UniProt P0DP23)
[3] = biological target: smooth muscle myosin truncated fragment (UniProt P35749)
Sequence of UniProt P35749 (P35749 1-1175): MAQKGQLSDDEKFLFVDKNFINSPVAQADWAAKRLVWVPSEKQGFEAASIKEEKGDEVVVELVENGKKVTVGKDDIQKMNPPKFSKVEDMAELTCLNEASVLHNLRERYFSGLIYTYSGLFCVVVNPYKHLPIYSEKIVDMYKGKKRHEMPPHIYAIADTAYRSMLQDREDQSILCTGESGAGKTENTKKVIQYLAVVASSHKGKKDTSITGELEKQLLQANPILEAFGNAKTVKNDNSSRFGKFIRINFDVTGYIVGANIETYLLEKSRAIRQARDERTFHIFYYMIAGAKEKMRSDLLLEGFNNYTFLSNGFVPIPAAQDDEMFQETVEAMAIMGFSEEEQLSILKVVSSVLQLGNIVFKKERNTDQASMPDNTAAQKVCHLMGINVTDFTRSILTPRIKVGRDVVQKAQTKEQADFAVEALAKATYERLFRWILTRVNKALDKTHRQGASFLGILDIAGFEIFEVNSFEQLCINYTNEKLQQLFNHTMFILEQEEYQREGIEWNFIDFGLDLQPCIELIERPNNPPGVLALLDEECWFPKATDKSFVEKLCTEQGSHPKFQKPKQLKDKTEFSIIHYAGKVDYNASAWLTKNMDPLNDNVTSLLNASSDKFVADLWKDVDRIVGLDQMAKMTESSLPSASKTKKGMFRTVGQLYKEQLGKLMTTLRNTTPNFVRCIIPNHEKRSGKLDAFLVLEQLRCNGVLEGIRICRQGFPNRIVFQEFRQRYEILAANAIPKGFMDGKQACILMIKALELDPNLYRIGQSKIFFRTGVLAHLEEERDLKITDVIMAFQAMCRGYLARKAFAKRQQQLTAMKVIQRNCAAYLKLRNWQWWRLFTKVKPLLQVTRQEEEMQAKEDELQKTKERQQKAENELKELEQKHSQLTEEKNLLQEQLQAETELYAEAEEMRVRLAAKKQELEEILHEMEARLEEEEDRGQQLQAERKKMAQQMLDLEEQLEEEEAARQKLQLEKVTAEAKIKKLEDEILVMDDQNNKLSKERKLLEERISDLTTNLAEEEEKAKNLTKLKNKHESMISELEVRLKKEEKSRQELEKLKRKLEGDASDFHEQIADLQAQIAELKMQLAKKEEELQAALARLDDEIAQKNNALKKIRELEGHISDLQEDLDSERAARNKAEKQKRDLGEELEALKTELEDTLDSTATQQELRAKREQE

Sequence of UniProt P10587 (P10587 2-1979): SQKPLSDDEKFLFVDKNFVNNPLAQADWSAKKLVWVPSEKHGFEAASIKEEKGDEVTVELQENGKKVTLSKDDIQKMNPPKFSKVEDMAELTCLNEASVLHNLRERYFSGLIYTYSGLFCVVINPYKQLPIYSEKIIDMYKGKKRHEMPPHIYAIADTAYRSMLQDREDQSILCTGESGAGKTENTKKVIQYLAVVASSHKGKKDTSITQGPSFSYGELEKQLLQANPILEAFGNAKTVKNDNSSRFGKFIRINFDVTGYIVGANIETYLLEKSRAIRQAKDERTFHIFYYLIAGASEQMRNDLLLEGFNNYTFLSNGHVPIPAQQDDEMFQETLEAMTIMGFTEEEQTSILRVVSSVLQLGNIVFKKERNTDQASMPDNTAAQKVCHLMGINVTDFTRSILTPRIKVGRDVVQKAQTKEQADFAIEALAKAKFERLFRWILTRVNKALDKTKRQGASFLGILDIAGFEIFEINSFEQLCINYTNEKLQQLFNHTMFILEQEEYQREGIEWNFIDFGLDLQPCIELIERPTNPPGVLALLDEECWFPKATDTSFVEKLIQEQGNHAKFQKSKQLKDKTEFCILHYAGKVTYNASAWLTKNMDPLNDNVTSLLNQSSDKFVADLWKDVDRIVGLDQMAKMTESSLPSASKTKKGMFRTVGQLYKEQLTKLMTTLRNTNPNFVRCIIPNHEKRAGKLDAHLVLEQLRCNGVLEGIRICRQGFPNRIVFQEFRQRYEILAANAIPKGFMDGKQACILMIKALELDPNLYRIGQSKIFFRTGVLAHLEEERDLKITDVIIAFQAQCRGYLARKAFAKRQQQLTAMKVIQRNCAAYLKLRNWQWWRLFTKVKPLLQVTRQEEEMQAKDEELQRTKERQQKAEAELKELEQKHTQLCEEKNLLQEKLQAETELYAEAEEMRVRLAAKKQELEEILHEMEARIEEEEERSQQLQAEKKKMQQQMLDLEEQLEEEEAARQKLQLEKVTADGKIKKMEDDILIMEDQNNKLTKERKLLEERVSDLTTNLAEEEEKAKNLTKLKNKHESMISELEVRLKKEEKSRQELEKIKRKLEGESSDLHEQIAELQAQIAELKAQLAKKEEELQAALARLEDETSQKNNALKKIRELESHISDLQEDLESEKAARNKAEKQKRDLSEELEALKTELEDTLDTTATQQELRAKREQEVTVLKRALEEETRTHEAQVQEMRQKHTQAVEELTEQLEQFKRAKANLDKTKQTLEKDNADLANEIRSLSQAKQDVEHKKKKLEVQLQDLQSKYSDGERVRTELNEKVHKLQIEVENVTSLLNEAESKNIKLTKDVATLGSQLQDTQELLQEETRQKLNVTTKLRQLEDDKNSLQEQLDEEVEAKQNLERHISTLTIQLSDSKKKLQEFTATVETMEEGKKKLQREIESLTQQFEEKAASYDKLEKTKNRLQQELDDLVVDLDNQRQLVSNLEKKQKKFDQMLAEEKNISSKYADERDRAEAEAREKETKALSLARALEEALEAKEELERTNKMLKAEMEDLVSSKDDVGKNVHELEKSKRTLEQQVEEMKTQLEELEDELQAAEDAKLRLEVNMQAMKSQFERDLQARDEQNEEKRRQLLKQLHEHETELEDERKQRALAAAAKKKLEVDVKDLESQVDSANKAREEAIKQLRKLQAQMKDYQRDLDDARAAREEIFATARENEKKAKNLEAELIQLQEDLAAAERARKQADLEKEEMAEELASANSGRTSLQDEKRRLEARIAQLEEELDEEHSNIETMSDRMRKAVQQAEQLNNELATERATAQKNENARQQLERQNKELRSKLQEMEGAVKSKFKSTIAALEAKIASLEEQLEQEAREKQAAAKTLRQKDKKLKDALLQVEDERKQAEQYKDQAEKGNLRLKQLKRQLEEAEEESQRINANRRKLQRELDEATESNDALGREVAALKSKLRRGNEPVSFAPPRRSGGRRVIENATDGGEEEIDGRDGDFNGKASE
Sequence of MLCK (P11799 935-1906): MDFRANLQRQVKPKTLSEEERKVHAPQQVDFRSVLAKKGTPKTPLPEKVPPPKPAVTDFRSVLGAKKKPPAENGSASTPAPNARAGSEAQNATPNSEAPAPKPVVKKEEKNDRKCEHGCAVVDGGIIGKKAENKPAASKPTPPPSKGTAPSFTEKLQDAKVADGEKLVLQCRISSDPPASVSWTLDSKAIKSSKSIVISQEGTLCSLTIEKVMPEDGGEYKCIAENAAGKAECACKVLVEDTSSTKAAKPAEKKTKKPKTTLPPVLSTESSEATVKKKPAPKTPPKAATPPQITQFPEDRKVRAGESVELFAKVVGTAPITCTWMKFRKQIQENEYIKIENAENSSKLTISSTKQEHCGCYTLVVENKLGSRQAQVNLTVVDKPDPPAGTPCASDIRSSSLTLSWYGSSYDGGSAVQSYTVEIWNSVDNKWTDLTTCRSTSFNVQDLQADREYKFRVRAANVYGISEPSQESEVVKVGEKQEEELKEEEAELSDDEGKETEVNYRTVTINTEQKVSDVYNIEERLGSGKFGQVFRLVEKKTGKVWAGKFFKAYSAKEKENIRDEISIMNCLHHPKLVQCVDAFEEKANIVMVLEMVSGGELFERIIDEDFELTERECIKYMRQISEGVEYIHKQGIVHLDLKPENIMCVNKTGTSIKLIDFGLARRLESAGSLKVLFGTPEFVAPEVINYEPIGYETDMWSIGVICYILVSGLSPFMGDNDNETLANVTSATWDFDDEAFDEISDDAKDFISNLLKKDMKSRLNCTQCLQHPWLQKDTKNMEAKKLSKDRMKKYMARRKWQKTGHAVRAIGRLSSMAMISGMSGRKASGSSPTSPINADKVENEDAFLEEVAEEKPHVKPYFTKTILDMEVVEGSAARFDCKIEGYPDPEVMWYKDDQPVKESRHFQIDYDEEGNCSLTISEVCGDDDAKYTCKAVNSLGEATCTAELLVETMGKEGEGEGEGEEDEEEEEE

## MLCK (from UniProt P11799)
[1]
  Kd: 0.8 µM

## MLCK N-terminal actin-binding region (from UniProt Q15746)
[2]
  Kd: 5 µM

## telokin telokin (from UniProt Q15746)
[3]
  Ki: 40 µM and 20 µM
